Data: paper PMC4279229 (Molecular Biology of the Cell, 2015)

Target: mouse VASP (wild-type, full-length) (mouse, UniProt P70460 1-375)
Experiment: immunolabeling of protein-coated beads

Sequence of mouse VASP (wild-type, full-length) (P70460 whole entry): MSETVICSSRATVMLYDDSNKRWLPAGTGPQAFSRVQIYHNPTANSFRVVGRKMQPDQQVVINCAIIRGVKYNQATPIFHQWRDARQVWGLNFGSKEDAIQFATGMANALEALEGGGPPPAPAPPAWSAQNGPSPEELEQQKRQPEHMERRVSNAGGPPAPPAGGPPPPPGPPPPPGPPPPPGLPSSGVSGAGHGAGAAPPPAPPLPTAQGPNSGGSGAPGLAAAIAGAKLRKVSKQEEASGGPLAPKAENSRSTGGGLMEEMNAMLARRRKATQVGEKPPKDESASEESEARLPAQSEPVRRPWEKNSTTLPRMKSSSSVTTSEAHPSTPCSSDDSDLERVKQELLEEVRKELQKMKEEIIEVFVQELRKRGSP

binding result: binds
B1: PRD-VCA-WAVE (PRD-VCA domain of human WAVE-2, Lys195-Asp498) (domain or fragment, UniProt Q9Y6W5 195-498, looked up)
chain: KIKTRKEEWEKMKMGQEFVESKEKLGTSGYPPTLVYQNGSIGCVENVDASSYPPPPQSDSASSPSPSFSEDNLPPPPAEFSYPVDNQRGSGLAGPKRSSVVSPSHPPPAPPLGSPPGPKPGFAPPPAPPPPPPPMIGIPPPPPPVGFGSPGTPPPPSPPSFPPHPDFAAPPPPPPPPAADYPTLPPPPLSQPTGGAPPPPPPPPPPGPPPPPFTGADGQPAIPPPLSDTTKPKSSLPAVSDARSDLLSAIRQGFQLRRVEEQREQEKRDVVGNDVATILSRRIAVEYSDSEDDSSEFDEDDWSD
